For test [1], the target named is soluble recombinant HLA-DR4 (HLA-DRβ1*04:01) (human). In words: ELISA. A general note: ELISA stands for enzyme-linked immunosorbent assay.
For test [2] the target is unchanged. Nature of the test: ELISA. This is another data set of the same source.
For test [3] the target is unchanged. In words: dissociation kinetics (LB3.1 capture, europium-streptavidin time-resolved fluorescence).
Test [4] has the same target. In words: ELISA; apparent Kd; direct binding of biotin-labeled peptide to DR4 as in the DR-ELISA (72 h), binding reactions set up with 1 µM HLA-DM.
Test [5] has the same target.

Values joined by “and” are separate entries in the source; they are usually repeats but may differ in a detail not shown here. Equal entries are not always repeated. Where two headings read alike, the source gives them in different places.

These results are taken from paper PMC4077652, “An Unstable Th Epitope of P. falciparum Fosters Central Memory T Cells and Anti-CS Antibody Responses” (PLoS ONE, 2014).

For orientation: IC50 means the concentration at which inhibition is half-maximal. For orientation: half-life means how long it takes for the measured level to halve.

In the case of “biotin-labeled T* 326-345 peptide (NF-54 variant)”, the Kd in test [1] was 248 nM and 123 nM.
In the case of HA 306-318 peptide, unlabeled, the results for the IC50 in test [1] and in test [2] were 310 nM and 172000 nM, respectively.
Regarding biotin-labeled T*-1 327-338 peptide, in test [3], the half-life stood at 63.9 h and the half-life with HLA-DM is 4.9 h. The Kd in test [4] was found to be 51.6 nM. Further, the Kd in test [1] came to 42.6 nM.
Regarding “QNT-Y peptide (QNT-5 analogue L335Y), unlabeled”, the half-inhibitory concentration (IC50) in test [1] was 130 nM.
Take biotin-labeled HA 306-318 peptide: in test [5], the half-life turned out to be 620 h.
As to QNT-5 332-345 peptide, unlabeled, the IC50 in test [1] turned out to be 1700 nM.
